{"source": "paper PMC7380111", "origin": "cited, not measured here", "key": {"[1]": {"target": "NRP1 (Homo sapiens) (UniProt O14786)", "sequence (O14786 22-923)": "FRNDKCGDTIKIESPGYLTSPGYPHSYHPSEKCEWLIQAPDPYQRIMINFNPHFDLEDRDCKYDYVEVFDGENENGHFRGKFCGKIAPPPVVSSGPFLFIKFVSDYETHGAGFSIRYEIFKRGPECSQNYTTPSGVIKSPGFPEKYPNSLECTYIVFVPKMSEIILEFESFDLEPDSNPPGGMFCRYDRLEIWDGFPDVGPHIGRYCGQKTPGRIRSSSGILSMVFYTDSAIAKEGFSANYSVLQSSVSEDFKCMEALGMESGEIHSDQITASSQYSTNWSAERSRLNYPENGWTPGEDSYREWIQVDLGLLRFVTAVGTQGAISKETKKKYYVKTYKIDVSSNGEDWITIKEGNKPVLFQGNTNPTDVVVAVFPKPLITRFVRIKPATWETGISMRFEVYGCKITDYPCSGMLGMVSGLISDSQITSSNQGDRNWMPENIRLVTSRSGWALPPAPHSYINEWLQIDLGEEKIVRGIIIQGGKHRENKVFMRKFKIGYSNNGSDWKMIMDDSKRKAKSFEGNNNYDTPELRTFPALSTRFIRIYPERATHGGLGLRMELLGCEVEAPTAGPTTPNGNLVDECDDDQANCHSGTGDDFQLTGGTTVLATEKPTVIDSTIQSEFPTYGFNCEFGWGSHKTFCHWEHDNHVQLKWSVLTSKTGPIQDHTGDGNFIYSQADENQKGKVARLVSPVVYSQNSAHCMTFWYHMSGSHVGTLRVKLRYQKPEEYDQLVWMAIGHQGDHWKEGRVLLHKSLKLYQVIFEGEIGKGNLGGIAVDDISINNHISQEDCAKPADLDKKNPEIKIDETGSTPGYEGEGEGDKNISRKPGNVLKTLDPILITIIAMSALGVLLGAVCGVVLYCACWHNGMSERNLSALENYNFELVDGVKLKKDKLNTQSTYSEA"}, "[2]": {"target": "NRP2 (Homo sapiens) (UniProt O60462)", "sequence (O60462 21-931)": "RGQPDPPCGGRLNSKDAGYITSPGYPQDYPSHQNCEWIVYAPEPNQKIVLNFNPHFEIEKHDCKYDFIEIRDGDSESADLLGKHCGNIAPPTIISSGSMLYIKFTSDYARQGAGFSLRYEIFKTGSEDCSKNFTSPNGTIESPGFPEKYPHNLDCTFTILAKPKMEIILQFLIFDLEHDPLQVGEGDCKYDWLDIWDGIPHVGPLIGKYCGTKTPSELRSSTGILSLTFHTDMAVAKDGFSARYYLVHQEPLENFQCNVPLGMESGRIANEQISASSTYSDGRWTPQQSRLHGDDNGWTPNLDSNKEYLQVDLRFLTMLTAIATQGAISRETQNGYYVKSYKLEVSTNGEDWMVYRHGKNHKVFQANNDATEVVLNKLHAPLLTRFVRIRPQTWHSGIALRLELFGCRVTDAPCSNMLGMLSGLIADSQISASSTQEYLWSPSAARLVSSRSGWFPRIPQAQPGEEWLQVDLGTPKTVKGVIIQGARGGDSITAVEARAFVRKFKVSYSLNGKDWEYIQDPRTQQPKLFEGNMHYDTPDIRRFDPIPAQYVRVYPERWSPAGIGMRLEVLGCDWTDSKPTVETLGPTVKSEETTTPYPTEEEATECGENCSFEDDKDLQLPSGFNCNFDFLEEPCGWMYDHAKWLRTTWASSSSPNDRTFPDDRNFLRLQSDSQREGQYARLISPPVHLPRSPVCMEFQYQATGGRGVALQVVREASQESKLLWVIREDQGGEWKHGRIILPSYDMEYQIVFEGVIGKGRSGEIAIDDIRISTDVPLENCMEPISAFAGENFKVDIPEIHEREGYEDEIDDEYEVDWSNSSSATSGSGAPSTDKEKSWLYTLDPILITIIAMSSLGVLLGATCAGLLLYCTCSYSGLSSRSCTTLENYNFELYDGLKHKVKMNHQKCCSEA"}}, "data": [{"substance": "VEGF165 (from UniProt P15692)", "values": [{"measurement": "Kd", "setting": "[1]", "value": 0.2, "unit": "nM"}, {"measurement": "Kd", "setting": "[2]", "value": 5, "unit": "nM"}]}]}
